{"source": "patent US20200347130A1", "about": "(JIANGSU HENGRUI MEDICINE, published 2020)", "key": {"[1]": {"biological_target": "T1, CD96 extracellular region with His tag (CD96-His) (human, UniProt P40200 22-519)", "T1 construct": "also called CD96-ECD-His; Bio-CD96-His (biotin-labelled form)", "T1 sequence": "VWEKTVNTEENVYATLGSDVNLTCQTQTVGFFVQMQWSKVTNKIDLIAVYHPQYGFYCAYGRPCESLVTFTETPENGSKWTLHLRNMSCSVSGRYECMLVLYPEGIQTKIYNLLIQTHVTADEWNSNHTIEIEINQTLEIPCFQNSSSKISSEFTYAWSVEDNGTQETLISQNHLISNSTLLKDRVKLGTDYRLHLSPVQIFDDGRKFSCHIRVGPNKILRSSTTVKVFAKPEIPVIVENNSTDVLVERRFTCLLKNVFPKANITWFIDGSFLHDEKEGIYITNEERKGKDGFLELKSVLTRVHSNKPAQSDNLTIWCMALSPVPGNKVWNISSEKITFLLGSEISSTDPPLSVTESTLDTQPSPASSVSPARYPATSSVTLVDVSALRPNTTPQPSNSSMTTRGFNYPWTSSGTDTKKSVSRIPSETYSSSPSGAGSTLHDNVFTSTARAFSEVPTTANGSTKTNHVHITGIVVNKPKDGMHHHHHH", "experiment": "ELISA, CD96-His coated", "method": "The binding capacity of the anti-CD96 antibody was tested by ELISA to determine the binding of the antibody to human CD96 protein. The His-tagged CD96 fusion protein was used to coat the microtiter plate, and the intensity of the signal after adding with the antibody was used for evaluating the binding activity of the antibody and CD96. The specific experimental method is as follows:\nCD96-His with the sequence of SEQ ID NO: 4 prepared in Embodiment 1 was diluted to a concentration of 2 μg/ml with PBS buffer (Shanghai Yuanpei Biotechnology Co., Ltd. Cat No. B320), pH 7.4, added to a 96-well microtiter plate (Corning, Cat No. CLS3590-100EA) at a volume of 50 μl/well, and placed in an incubator at 37° C. for 2 hours. After discarding the liquid, 250 μl/well of 5% skim milk (BD, Cat No. 232100) blocking solution diluted with PBS was added, and the plate was incubated at 37° C. for 2.5 hours or at 4° C. overnight (16-18 hours) for blocking. After blocking, the blocking solution was discarded, and the plate was washed 4 times with PBST buffer (pH 7.4 PBS containing 0.05% tween-20). 50 μl/well of different concentrations of the antibodies to be tested (hybridoma purification antibody or humanized antibody) diluted with sample dilution was added, and the plate was incubated in an incubator at 37° C. for 1 hour. […] After washing the plate 4 times with PBST, 50 μl/well of TMB chromogenic substrate (KPL, Cat No. 52-00-03) was added, and the plate was incubated at room temperature for 5-15 minutes, followed by adding 50 μl/well of 1M H₂SO₄ to stop the reaction. The absorption value was read at 450 nm with a NOVOStar microplate reader, and the EC50 value of the binding of CD96 antibody to human CD96 was calculated (see Table 13)."}, "[2]": {"biological_target": "T1, CD96 extracellular region with His tag …", "experiment": "SPR (Biacore), antibody captured, CD96-ECD-His as mobile phase", "text": "Protein A biosensor chip was used to capture antibodies to be tested, then CD96 antigen was flowed on the surface of the chip, and real time reaction signal was detected by Biacore to obtain the binding and dissociation curve. After the dissociation of each experimental cycle was completed, the biosensor chip was washed and regenerated with a glycine-hydrochloric acid regeneration solution (pH 1.5)."}, "[3]": {"biological_target": "T2, Full-length human CD96 on CHO-S cells (human, UniProt P40200 22-585)", "T2 construct": "also called CD96-CHOs; hCD96-CHOs", "T2 sequence": "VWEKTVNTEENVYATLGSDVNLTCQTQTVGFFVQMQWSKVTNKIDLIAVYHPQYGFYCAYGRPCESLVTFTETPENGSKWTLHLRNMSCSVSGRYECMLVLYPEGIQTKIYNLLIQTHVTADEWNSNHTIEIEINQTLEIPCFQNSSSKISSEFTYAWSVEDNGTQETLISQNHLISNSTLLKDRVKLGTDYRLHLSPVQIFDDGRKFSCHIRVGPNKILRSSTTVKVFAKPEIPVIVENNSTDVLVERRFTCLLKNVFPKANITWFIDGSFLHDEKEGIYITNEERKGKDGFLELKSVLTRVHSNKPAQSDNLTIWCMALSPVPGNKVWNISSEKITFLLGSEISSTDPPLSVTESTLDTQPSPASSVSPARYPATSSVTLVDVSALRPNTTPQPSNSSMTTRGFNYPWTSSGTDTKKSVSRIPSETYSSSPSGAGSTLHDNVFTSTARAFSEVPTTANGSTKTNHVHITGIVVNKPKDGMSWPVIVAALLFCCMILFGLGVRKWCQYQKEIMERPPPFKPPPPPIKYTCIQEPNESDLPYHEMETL", "experiment": "cell ELISA, fixed CD96-overexpressing CHO-S cells", "method": "The binding capacity of the anti-CD96 antibody was tested by binding experiments of the antibody to human CD96 protein overexpressing CHO-S cells. The full-length CD96 plasmid was transfected into CHO-S cells by electrotransfection, and cells were then screened for two weeks under pressure for the detection of the expression of CD96. After the over-expressing cells were fixed at the bottom of the 96-well plate, the density of the signal after adding the antibody was used to judge the binding activity of the antibody to CD96 overexpressing CHO-S cells. The specific experimental method is as follows:\nThe cells were seeded at a density of 9×10⁴/100 μL/well in a 96-well plate and cultured overnight. After aspirating the supernatant, the plate was washed once with PBS, subsequently, 100 μl/well immunostaining fixation solution (Biyuntian, P0098) was added and fixed for one hour at room temperature, and the plate was washed three times with PBS. Once the liquid was discarded, 250 μl/well of 5% skim milk (BD, 232100) blocking solution diluted with PBS was added, and the plate was blocked in an incubator at 37° C. for 2.5 hours. After blocking, the blocking solution was discarded, the plate was washed 4 times with PBST buffer (pH 7.4 PBS containing 0.05% tween-20), followed by diluting 50 μl/well of different concentrations of the antibodies (hybridoma purification antibody or humanized antibody) to be tested the plate was incubated in an incubator at 37° C. for 2 hours. After incubation, the plate was wash 4 times with PBST. […] After washing the plate 4 times with PBST, 50 μl/well of TMB chromogenic substrate (KPL, Cat No. 52-00-03) was added, the plate was incubated at room temperature for 10-25 min, followed by adding 50 μl/well of 1M H₂SO₄ to stop the reaction. The absorption value was read at 450 nm with a NOVOStar microplate reader, and the EC50 value of the CD96 antibodies to CD96 overexpressing CHO-S cells was calculated (see FIG. 1 and Table 15)."}}}
{"binder": "h1719-006 (antibody, V domains shown, also called M719-006) VH: EVTLKESGPVLVKPTETLTLTCTVSGFSLSSYGVSWVRQPPGKGLEWLGVIWGDGNTNYHSVLISRLTISKDTSKSQVVLTLTNMDPVDTATYYCAKNNYYGSRYGYPMDYWGQGTTVTVSS VL: DIQMTQSPSSVSASVGDRVTITCKATQDVGTAVAWYQQKPGKSPKLLIYWASTRHTGVPERFSGSGSGTDFTLTISSLQPEDFATYFCQQYGSSVLTFGGGTKVEIK", "values": [{"measurement": "EC50", "setting": "[1]", "result": 0.083, "unit": "nM"}, {"measurement": "Kd", "setting": "[2]", "result": 13.1, "unit": "nM"}, {"measurement": "EC50", "setting": "[3]", "result": 0.016, "unit": "nM"}]}
{"binder": "h1719-014 (antibody, V domains shown, Only variable regions are tied to this name; also called M719-014) VH: EVTLKESGPVLVKPTETLTLTCTVSGFSLSSYGVSWVRQPPGKGLEWLGVIWGDGNTNYHSVLISRLTISKDTSKSQVVLTLTNMDPVDTATYYCAKNYYYGSRYGYPLDYWGQGTTVTVSS VL: DIQMTQSPSSVSASVGDRVTITCKATQDVGTAVAWYQQKPGKSPKLLIYWASTRHTGVPERFSGSGSGTDFTLTISSLQPEDFATYFCQQYGSSVLTFGGGTKVEIK", "values": [{"measurement": "EC50", "setting": "[1]", "result": 0.091, "unit": "nM"}, {"measurement": "Kd", "setting": "[2]", "result": 14.9, "unit": "nM"}, {"measurement": "EC50", "setting": "[3]", "result": 0.02, "unit": "nM"}]}
